One series addresses T1, DmoB (Arthrobacter globiformis, UniProt H0QJX4).
T1 sequence (H0QJX4 1-171): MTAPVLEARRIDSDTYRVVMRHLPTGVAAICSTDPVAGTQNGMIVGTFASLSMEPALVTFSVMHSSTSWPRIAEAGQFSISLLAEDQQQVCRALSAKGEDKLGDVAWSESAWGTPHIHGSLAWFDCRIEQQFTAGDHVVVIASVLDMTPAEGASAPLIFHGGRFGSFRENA
Nature of the series: fluorescence quenching titration of FMN with DmoB. The format is binding.

Substrate in series [1]: Cc1cc2nc3c(=O)[nH]c(=O)nc-3n(C[C@H](O)[C@H](O)[C@H](O)CO)c2cc1C
Nature of the series: purified protein. The conditions noted are these: 50 μM NADH, 20 mM PIPES, pH 7.4, 25 °C.

Substrate in series [2]: Cc1cc2nc3c(=O)[nH]c(=O)nc-3n(C[C@H](O)[C@H](O)[C@H](O)COP(=O)(O)OP(=O)(O)OC[C@H]3O[C@@H](n4cnc5c(N)ncnc54)[C@H](O)[C@@H]3O)c2cc1C
Kind of series: purified protein. Particulars: 50 μM NADH, 20 mM PIPES, pH 7.4, 25 °C.

Substrate in series [3]: Cc1cc2nc3c(=O)[nH]c(=O)nc-3n(C[C@H](O)[C@H](O)[C@H](O)COP(=O)(O)O)c2cc1C
Nature of the series: purified protein. Particulars: 50 μM NADH, 20 mM PIPES, pH 7.4, 25 °C.

Substrate in series [4]: NC(=O)C1=CN([C@@H]2O[C@H](COP(=O)(O)OP(=O)(O)OC[C@H]3O[C@@H](n4cnc5c(N)ncnc54)[C@H](O)[C@@H]3O)[C@@H](O)[C@H]2O)C=CC1
Nature of the series: purified protein. Particulars: 50 μM FMN, 20 mM PIPES, pH 7.4, 25 °C.

The term Kd denotes the concentration at which binding is half-saturated. A high value points to lower affinity. On DmoB, `Cc1cc2nc3c(=O)[nH]c(=O)nc-3n(C[C@H](O)[C@H](O)[C@H](O)COP(=O)(O)O)c2cc1C` [FMN] had an equilibrium dissociation constant (Kd) of 1110 ± 710 nM.

B1: DmoB (Arthrobacter globiformis NBRC 12137) (protein)
chain: T1 sequence (H0QJX4 1-171)
What is called Km is the substrate concentration at which the rate is half of its maximum. Broadly, the Vmax is the rate approached at saturating substrate. One may read the kcat/Km as the second-order rate constant that governs catalysis at low substrate concentration. Turning to B1, the Km in the series “purified protein [1]” amounted to 142 ± 7 µM; in “purified protein [2]”, 84 ± 12 µM; in “purified protein [3]”, 18 ± 5 µM; in “purified protein [4]”, 2.3 ± 0.5 µM. In addition, the maximal velocity (Vmax) came out at 130 µmol/min/mg in the series “purified protein [1]”, 153 µmol/min/mg in “purified protein [2]”, 207 µmol/min/mg in the series “purified protein [3]” and 149 µmol/min/mg in “purified protein [4]”. Besides, the specificity constant (kcat/Km) was determined as 283000 M⁻¹ s⁻¹ in the series “purified protein [1]”, 583000 M⁻¹ s⁻¹ in the series “purified protein [2]”, 3.72e+06 M⁻¹ s⁻¹ in the series “purified protein [3]” and 2.09e+07 M⁻¹ s⁻¹ in “purified protein [4]”.

The values are drawn from paper PMC7203701 (ACS Omega, 2020).
